Test results from article PMC7010297, “How the initiating ribosome copes with ppGpp to translate mRNAs” (PLoS Biology, 2020).
Values joined by “and” are separate entries in the source; they are usually repeats but may differ in a detail not shown here. Equal values may be shown once. Read-outs that look alike come from different tables or passages of the source.

Key:
[1] = system: 30S subunit (30S IC); test: 30S IC formation by MST, mRNA titration; type: binding, Escherichia coli; conditions: for MST Average / MST Replicates (a.u.): Fig 3B; for Kd: Fig 3C, from mRNA titration of 30S IC formation; for 30S IC formation MST signal, Average / 30S IC formation MST signal, replicates: Fig 6D
Text: Fig 1 Bacterial stringent response and experimental approach. (A) Schematics representing the onset of stringent response, (p)ppGpp accumulation, and gene expression regulation. Translation of stress-related mRNAs upon (p)ppGpp accumulating is the focus of the investigation (indicated as the red question mark). (B) Schematics of instrumentation for measuring 30S initiation complex (IC) by fluorescence Microscale Thermophoresis (MST) (provided by Nanotemper Technologies). […] Fluorophore excitation and measurement of the emitted fluorescence, together with IR-mediated perturbation of the equilibrium, are achieved through an objective and dichroic mirror. (C) Time courses of fluorescence showing the equilibrium relaxation upon thermal perturbation at varying ligand concentrations. Blue vertical lines indicate the fluorescence signal readout prior to the equilibrium perturbation (Fi), while vertical red lines indicate the fluorescence signal upon reaching the new equilibrium (Ff). Colored traces represent different concentrations of the titrating mRNA (0.1 to 4 μM). The ratio between the Ff over Fi times 1,000 is the normalized thermophoresis shift (MST). The dependency of MST shift on ligand concentration allows to estimate KD constants of the interaction using a hyperbolic or quadratic function and nonlinear regression fitting. MST measurements (closed circles) are indicated in the same colors as their respective time traces in (C). (D) Formation of 30S IC measured by MST. Time traces of thermophoresis (S1 Fig) were used to calculate MST values for all four combinations of mRNA start codons and labeled tRNAs for dependencies on mRNA concentration. […] Closed symbols indicate that Bpy-Met-tRNA^fMet was used, while open symbols correspond to Bpy-Phe-tRNA^Phe. Continuous lines indicate nonlinear regression fittings. Three to four measurements were performed; mean and error bars representing standard deviations are plotted (S1 Data).
To monitor the interaction of initiator tRNA and 30S ribosomal subunits, we used Microscale Thermophoresis (MST) with a fluorescently labelled initiator tRNA (Bpy-tRNAi) (Fig 1B). MST allows to measure fluorescence in a constrained space. Changes on the readout derive from molecular drifts resulting from small thermal equilibrium perturbations. Upon equilibrium perturbations, the patterns of Bpy-tRNAi migration away from the observation space are related to bound and unbound states (Fig 1B). […] On the contrary, a decrease in thermophoresis indicated the dissociation of Bpy-tRNAi. The relation between fluorescence measured at both equilibriums (Ff to Fi, after and prior to the perturbation, respectively) as a function of ligand concentration allowed to determine dissociation constants of the interaction (Fig 1C).
By observing the bound state of Bpy-tRNAi to the 30S subunit, MST could be measuring either IC, 30S pre-IC, or 30S IC, as they are identical in terms of ligand composition. […] To unambiguously assign which step is monitored by MST, we used different combinations of start codons and fluorescent tRNAs.
MST was calculated from the respective fluorescence time dependencies (S3 Fig). […] Symbols as in (B). […] Continuous lines indicate nonlinear regression fittings with quadratic (B and E) or same-site competition (G) functions. Three measurements were performed; mean and standard deviations are plotted (S1 Data).

[2] = system: mRNA translation (protein synthesis); test: In vitro translation in pure cell-free system (PURExpress, Lumio labelling); type: biochemical; conditions: 2 mM ppGpp; Fig 6G
[3] = Fig 3D, efficiency of 30S IC formation

B1: mTufA: TufA mRNA with full-length 5′ UTR, in vitro transcribed, codes for EF-Tu (nucleic acid)
chain: GGUUCUAUCGCCUUUAAAGAAGGCUUUAAGAAAGCGAAACCAGUUCUGCUUGAGCCGAUCAUGAAGGUUGAAGUAGAAACUCCGGAAGAGAACACCGGUGACGUUAUCGGUGACUUGAGCCGUCGUCGUGGUAUGCUCAAAGGUCAGGAAUCUGAAGUUACUGGCGUUAAGAUCCACGCUGAAGUACCGCUGUCUGAAAUGUUCGGAUACGCAACUCAGCUGCGUUCUCUGACCAAAGGUCGUGCAUCAUACACUAUGGAAUUCCUGAAGUAUGAUGAAGCGCCGAGUAACGUUGCUCAGGCCGUAAUUGAAGCCCGUGGUAAAUAAGCCUAAGGGUUAAUACCAAAGUCCCGUGCUCUCUCCUGAAGGGGAGAGCACUAUAGUAAGGAAUAUAGCCGUGUCUAAAGAAAAAUUUGAACG
For B1, the “MST Average” value ([1]; mRNA 0.004 μM) was 969.58 a.u, the “MST Replicates (a.u.)” value ([1]; mRNA 0.004 μM) was 968.54 a.u. and 970.25 a.u. and 969.97 a.u and the “MST Average” value ([1]; mRNA 0.008 μM) was 969.59 a.u. The “MST Replicates (a.u.)” value ([1]; mRNA 0.008 μM) was 969.28 a.u. and 969.63 a.u. and 969.86 a.u, the “MST Average” value ([1]; mRNA 0.016 μM) was 972.78 a.u and the “MST Replicates (a.u.)” value ([1]; mRNA 0.016 μM) was 971.79 a.u. and 972.82 a.u. and 973.72 a.u. The “MST Average” value ([1]; mRNA 0.03 μM) was 974.49 a.u, the “MST Replicates (a.u.)” value ([1]; mRNA 0.03 μM) was 974.10 a.u. and 974.12 a.u. and 975.24 a.u and the “MST Average” value ([1]; mRNA 0.06 μM) was 982.70 a.u. For the same molecule, the “MST Replicates (a.u.)” value ([1]; mRNA 0.06 μM) was 982.27 a.u. and 982.61 a.u. and 983.22 a.u, the “MST Average” value ([1]; mRNA 0.13 μM) was 997.76 a.u and the “MST Replicates (a.u.)” value ([1]; mRNA 0.13 μM) was 996.79 a.u. and 997.90 a.u. and 998.61 a.u. For the same molecule, the “MST Average” value ([1]; mRNA 0.25 μM) was 1022.60 a.u, the “MST Replicates (a.u.)” value ([1]; mRNA 0.25 μM) was 1021.41 a.u. and 1022.36 a.u. and 1024.04 a.u and the “MST Average” value ([1]; mRNA 0.50 μM) was 1057.58 a.u. For the same molecule, the “MST Replicates (a.u.)” value ([1]; mRNA 0.50 μM) was 1056.44 a.u. and 1057.96 a.u. and 1058.33 a.u, the “MST Average” value ([1]; mRNA 1.00 μM) was 1095.54 a.u and the “MST Replicates (a.u.)” value ([1]; mRNA 1.00 μM) was 1094.17 a.u. and 1095.62 a.u. and 1096.83 a.u. The “MST Average” value ([1]; mRNA 2.00 μM) was 1113.87 a.u, the “MST Replicates (a.u.)” value ([1]; mRNA 2.00 μM) was 1113.37 a.u. and 1113.82 a.u. and 1114.42 a.u and the Kd ([1]; read-out: Kd (μM) of the mRNA, Average) was 0.19 µM. The Kd ([1]; read-out: Kd (μM) of the mRNA, single replicate) was 0.19 µM and 0.18 µM, the “MST Amplitude (a.u.), Average” value [1, 3] was 165.04 a.u and the “MST Amplitude (a.u.), single replicate” value [1, 3] was 165.44 a.u. and 164.97 a.u. and 164.70 a.u. For the same molecule, the “30S IC formation MST signal, Average” value ([1]; mRNA 0.001 µM) was 934.16, the “30S IC formation MST signal, replicates” value ([1]; mRNA 0.001 µM) was 933.97 and 934.33 and 934.18 and the “30S IC formation MST signal, Average” value ([1]; mRNA 0.002 µM) was 931.08. For the same molecule, the “30S IC formation MST signal, replicates” value ([1]; mRNA 0.002 µM) was 929.08 and 931.16 and 933.00, the “30S IC formation MST signal, Average” value ([1]; mRNA 0.004 µM) was 929.10 and the “30S IC formation MST signal, replicates” value ([1]; mRNA 0.004 µM) was 927.65 and 929.57 and 930.10. The “30S IC formation MST signal, Average” value ([1]; mRNA 0.008 µM) was 927.54, the “30S IC formation MST signal, replicates” value ([1]; mRNA 0.008 µM) was 923.84 and 929.70 and 929.07 and the “30S IC formation MST signal, Average” value ([1]; mRNA 0.016 µM) was 926.63. For the same molecule, the “30S IC formation MST signal, replicates” value ([1]; mRNA 0.016 µM) was 924.56 and 926.45 and 928.88, the “30S IC formation MST signal, Average” value ([1]; mRNA 0.031 µM) was 928.44 and the “30S IC formation MST signal, replicates” value ([1]; mRNA 0.031 µM) was 928.15 and 928.36 and 928.82. The “30S IC formation MST signal, Average” value ([1]; mRNA 0.062 µM) was 934.74, the “30S IC formation MST signal, replicates” value ([1]; mRNA 0.062 µM) was 934.59 and 934.05 and 935.59 and the “30S IC formation MST signal, Average” value ([1]; mRNA 0.125 µM) was 947.53. The “30S IC formation MST signal, replicates” value ([1]; mRNA 0.125 µM) was 949.07 and 946.54 and 946.98, the “30S IC formation MST signal, Average” value ([1]; mRNA 0.25 µM) was 962.80 and the “30S IC formation MST signal, replicates” value ([1]; mRNA 0.25 µM) was 964.74 and 961.64 and 962.03. For the same molecule, the “30S IC formation MST signal, Average” value ([1]; mRNA 0.5 µM) was 989.99, the “30S IC formation MST signal, replicates” value ([1]; mRNA 0.5 µM) was 993.30 and 987.37 and 989.30 and the “30S IC formation MST signal, Average” value ([1]; mRNA 1 µM) was 1011.86. For the same molecule, the “30S IC formation MST signal, replicates” value ([1]; mRNA 1 µM) was 1011.95 and 1011.22 and 1012.39, the “30S IC formation MST signal, Average” value ([1]; mRNA 2 µM) was 1036.12 and the “30S IC formation MST signal, replicates” value ([1]; mRNA 2 µM) was 1039.43 and 1034.52 and 1034.41. The “Translation Replicate” value [2] was 0.27 a.u.
